Reference: PMC10952621, “Long QT syndrome‐associated calmodulin variants disrupt the activity of the slowly activating delayed rectifier potassium channel” (The Journal of Physiology, 2023)

Biological target: human wild-type calmodulin (CaM-WT) (human, UniProt P0DP23 2-149)
Experiment: ITC; Kv7.1-HA peptide titrated into CaM (~50 uM) in the cell; 50 mM Na-HEPES, 100 mM KCl, 2 mM MgCl2, pH 7.5, 5 mM CaCl2; 25 °C; one-site binding model
Settings: both partners purified

- Kd: ~96 µM
B1: Kv7.1-HA(370-389) peptide, helix A of the KCNQ1 C-terminus (peptide)
peptide: AAASLIQTAWRCYAAENPDS
notes: source: synthetic peptide (GenicBio, HPLC purified, >95% purity)
